T1: CIPK1-His (Arabidopsis, UniProt Q8RWC9 1-444)
T1 construct: source: E. coli BL21 (Rosetta), purified; not shown: 6xHis, C-terminal, kept
T1 sequence (looked up): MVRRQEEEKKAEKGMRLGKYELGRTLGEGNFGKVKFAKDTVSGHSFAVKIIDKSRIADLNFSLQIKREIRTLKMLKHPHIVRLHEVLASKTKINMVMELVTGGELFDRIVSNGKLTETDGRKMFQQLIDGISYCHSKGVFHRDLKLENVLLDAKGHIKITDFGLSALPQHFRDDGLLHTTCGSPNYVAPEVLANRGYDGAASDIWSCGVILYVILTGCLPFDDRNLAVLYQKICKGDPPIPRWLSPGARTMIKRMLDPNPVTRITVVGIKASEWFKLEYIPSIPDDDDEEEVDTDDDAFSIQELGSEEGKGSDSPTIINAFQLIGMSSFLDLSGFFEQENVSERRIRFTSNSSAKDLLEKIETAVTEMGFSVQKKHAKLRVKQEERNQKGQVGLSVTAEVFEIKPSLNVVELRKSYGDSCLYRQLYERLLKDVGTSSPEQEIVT

B1: GST-PYR1 (receptor, Arabidopsis, UniProt O49686 1-191, looked up)
chain: MPSELTPEERSELKNSIAEFHTYQLDPGSCSSLHAQRIHAPPELVWSIVRRFDKPQTYKHFIKSCSVEQNFEMRVGCTRDVIVISGLPANTSTERLDILDDERRVTGFSIIGGEHRLTNYKSVTTVHRFEKENRIWTVVLESYVVDMPEGNSEDDTRMFADTVVKLNLQKLATVAEAMARNSGDGSGSQVT
notes: PYR1, ABA receptor, Arabidopsis; source: recombinant protein, purified; not shown: GST, N-terminal, kept
B2: GST-PYL6 (receptor, Arabidopsis, UniProt Q8S8E3 1-215, looked up)
chain: MPTSIQFQRSSTAAEAANATVRNYPHHHQKQVQKVSLTRGMADVPEHVELSHTHVVGPSQCFSVVVQDVEAPVSTVWSILSRFEHPQAYKHFVKSCHVVIGDGREVGSVREVRVVSGLPAAFSLERLEIMDDDRHVISFSVVGGDHRLMNYKSVTTVHESEEDSDGKKRTRVVESYVVDVPAGNDKEETCSFADTIVRCNLQSLAKLAENTSKFS
notes: PYL6, ABA receptor, Arabidopsis; source: recombinant protein, purified; not shown: GST, N-terminal, kept
B3: GST-PYL2 (receptor, Arabidopsis, UniProt O80992 1-190, looked up)
chain: MSSSPAVKGLTDEEQKTLEPVIKTYHQFEPDPTTCTSLITQRIHAPASVVWPLIRRFDNPERYKHFVKRCRLISGDGDVGSVREVTVISGLPASTSTERLEFVDDDHRVLSFRVVGGEHRLKNYKSVTSVNEFLNQDSGKVYTVVLESYTVDIPEGNTEEDTKMFVDTVVKLNLQKLGVAATSAPMHDDE
notes: PYL2, ABA receptor, Arabidopsis; source: recombinant protein, purified; not shown: GST, N-terminal, kept
B4: GST-PYL1 (receptor, Arabidopsis, UniProt Q8VZS8 1-221, looked up)
chain: MANSESSSSPVNEEENSQRISTLHHQTMPSDLTQDEFTQLSQSIAEFHTYQLGNGRCSSLLAQRIHAPPETVWSVVRRFDRPQIYKHFIKSCNVSEDFEMRVGCTRDVNVISGLPANTSRERLDLLDDDRRVTGFSITGGEHRLRNYKSVTTVHRFEKEEEEERIWTVVLESYVVDVPEGNSEEDTRLFADTVIRLNLQKLASITEAMNRNNNNNNSSQVR
notes: PYL1, ABA receptor, Arabidopsis; source: recombinant protein, purified; not shown: GST, N-terminal, kept
B5: GST-PYL3 (receptor, Arabidopsis, UniProt Q9SSM7 1-209, looked up)
chain: MNLAPIHDPSSSSTTTTSSSTPYGLTKDEFSTLDSIIRTHHTFPRSPNTCTSLIAHRVDAPAHAIWRFVRDFANPNKYKHFIKSCTIRVNGNGIKEIKVGTIREVSVVSGLPASTSVEILEVLDEEKRILSFRVLGGEHRLNNYRSVTSVNEFVVLEKDKKKRVYSVVLESYIVDIPQGNTEEDTRMFVDTVVKSNLQNLAVISTASPT
notes: PYL3, ABA receptor, Arabidopsis; source: recombinant protein, purified; not shown: GST, N-terminal, kept
B6: GST-PYL5 (receptor, Arabidopsis, UniProt Q9FLB1 1-203, looked up)
chain: MRSPVQLQHGSDATNGFHTLQPHDQTDGPIKRVCLTRGMHVPEHVAMHHTHDVGPDQCCSSVVQMIHAPPESVWALVRRFDNPKVYKNFIRQCRIVQGDGLHVGDLREVMVVSGLPAVSSTERLEILDEERHVISFSVVGGDHRLKNYRSVTTLHASDDEGTVVVESYIVDVPPGNTEEETLSFVDTIVRCNLQSLARSTNRQ
notes: PYL5, ABA receptor, Arabidopsis; source: recombinant protein, purified; not shown: GST, N-terminal, kept
B7: GST-PYL4 (receptor, Arabidopsis, UniProt O80920 1-207, looked up)
chain: MLAVHRPSSAVSDGDSVQIPMMIASFQKRFPSLSRDSTAARFHTHEVGPNQCCSAVIQEISAPISTVWSVVRRFDNPQAYKHFLKSCSVIGGDGDNVGSLRQVHVVSGLPAASSTERLDILDDERHVISFSVVGGDHRLSNYRSVTTLHPSPISGTVVVESYVVDVPPGNTKEETCDFVDVIVRCNLQSLAKIAENTAAESKKKMSL
notes: PYL4, ABA receptor, Arabidopsis; source: recombinant protein, purified; not shown: GST, N-terminal, kept

What follows are binders tested against T1, CIPK1-His (assay: pull-down; 5 ug GST-PYR1/PYLs on GST resin at 4 C for 2 h, then 2 ug CIPK1-His for 2 h in pull-down buffer; 6 washes; blots with anti-His and anti-GST). Conditions: both partners purified.

Q: Does B1 bind?
A: binds

Q: Does B2 bind?
A: binds

Q: Does B3 bind?
A: binds

Q: Does B4 bind?
A: binds

Q: Does B5 bind?
A: binds

Q: Does B6 bind?
A: binds

Q: Does B7 bind?
A: binds
